Reference: publication PMC9281127

Biological target: His-tagged PD-L1 (programmed death-ligand 1) (UniProt Q9NZQ7)
Assay: co-immunoprecipitation (IP: His, IB: Flag)
Settings: co-transfected plasmids, parent: 1.0

Sequence of UniProt Q9NZQ7 (Q9NZQ7 19-290): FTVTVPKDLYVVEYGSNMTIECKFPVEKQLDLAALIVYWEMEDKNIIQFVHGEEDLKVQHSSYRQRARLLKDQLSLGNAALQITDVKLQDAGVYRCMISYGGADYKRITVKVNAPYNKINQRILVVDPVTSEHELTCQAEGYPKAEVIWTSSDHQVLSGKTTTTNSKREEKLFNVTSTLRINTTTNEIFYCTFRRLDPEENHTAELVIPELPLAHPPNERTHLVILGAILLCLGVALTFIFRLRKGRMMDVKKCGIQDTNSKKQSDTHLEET

**Q.** How did the ratio to parent (HCT116 cells) turn out when “Flag-tagged ZG16 (zymogen granule protein 16) (from UniProt O60844) K36A; R37A; K79A; R53A; R55A” was run?
**A.** The ratio to parent was 0.6.

**Q.** What about the ratio to parent (SW480 cells) of the same substance?
**A.** The ratio to parent was 0.5.
